B1: Vascular endothelial growth factor receptor 2 (Mus musculus), P35918 (parent)
chain: MESKALLAVALWFCVETRAASVGLPGDFLHPPKLSTQKDILTILANTTLQITCRGQRDLDWLWPNAQRDSEERVLVTECGGGDSIFCKTLTIPRVVGNDTGAYKCSYRDVDIASTVYVYVRDYRSPFIASVSDQHGIVYITENKNKTVVIPCRGSISNLNVSLCARYPEKRFVPDGNRISWDSEIGFTLPSYMISYAGMVFCEAKINDETYQSIMYIVVVVGYRIYDVILSPPHEIELSAGEKLVLNCTARTELNVGLDFTWHSPPSKSHHKKIVNRDVKPFPGTVAKMFLSTLTIESVTKSDQGEYTCVASSGRMIKRNRTFVRVHTKPFIAFGSGMKSLVEATVGSQVRIPVKYLSYPAPDIKWYRNGRPIESNYTMIVGDELTIMEVTERDAGNYTVILTNPISMEKQSHMVSLVVNVPPQIGEKALISPMDSYQYGTMQTLTCTVYANPPLHHIQWYWQLEEACSYRPGQTSPYACKEWRHVEDFQGGNKIEVTKNQYALIEGKNKTVSTLVIQAANVSALYKCEAINKAGRGERVISFHVIRGPEITVQPAAQPTEQESVSLLCTADRNTFENLTWYKLGSQATSVHMGESLTPVCKNLDALWKLNGTMFSNSTNDILIVAFQNASLQDQGDYVCSAQDKKTKKRHCLVKQLIILERMAPMITGNLENQTTTIGETIEVTCPASGNPTPHITWFKDNETLVEDSGIVLRDGNRNLTIRRVRKEDGGLYTCQACNVLGCARAETLFIIEGAQEKTNLEVIILVGTAVIAMFFWLLLVIVLRTVKRANEGELKTGYLSIVMDPDELPLDERCERLPYDASKWEFPRDRLKLGKPLGRGAFGQVIEADAFGIDKTATCKTVAVKMLKEGATHSEHRALMSELKILIHIGHHLNVVNLLGACTKPGGPLMVIVEFCKFGNLSTYLRGKRNEFVPYKSKGARFRQGKDYVGELSVDLKRRLDSITSSQSSASSGFVEEKSLSDVEEEEASEELYKDFLTLEHLICYSFQVAKGMEFLASRKCIHRDLAARNILLSEKNVVKICDFGLARDIYKDPDYVRKGDARLPLKWMAPETIFDRVYTIQSDVWSFGVLLWEIFSLGASPYPGVKIDEEFCRRLKEGTRMRAPDYTTPEMYQTMLDCWHEDPNQRPSFSELVEHLGNLLQANAQQDGKDYIVLPMSETLSMEEDSGLSLPTSPVSCMEEEEVCDPKFHYDNTAGISHYLQNSKRKSRPVSVKTFEDIPLEEPEVKVIPDDSQTDSGMVLASEELKTLEDRNKLSPSFGGMMPSKSRESVASEGSNQTSGYQSGYHSDDTDTTVYSSDEAGLLKMVDAAVHADSGTTLRSPPV

Variants of: B1
Settings: with pgfrb_human PDGFRB

| effect of a mutation on the interaction | Variant |
| --- | --- |
| disrupting interaction | Y1052F;Y1057F |

Reference: IntAct's records for PubMed 18997771
